Consider two molecules from paper PMC5207143.

Where only a bound is given, the exact number is not on record here.

The target in assay [1] is FcγRIIB on Raji cells (human (endogenous in Raji)) (UniProt P31994).
Assay [2] addresses human FcγRIIA receptor, Arg131 allotype (on transfected Expi293F cells) (human). In words: flow cytometry on cells; Expi293F cells transiently transfected with a human Fcγ receptor, 48 h after transfection; 1 to 10000 ng/ml test antibody, 1.5 h at 4 °C; R-phycoerythrin anti-human IgG secondary antibody; EC50 by nonlinear regression of mean fluorescence. In general terms: A flow cytometer gives signals particle by particle.

Assay [3] concerns the target human FcγRIIB receptor (on transfected Expi293F cells) (human) (UniProt P31994). The description is as above.
The target in assay [4] is OX40SF2IgG1E345R/E430G/S440Y (human). In words: SEC-MALS; purified antibody in solution; monomeric peak and a ∼900 kDa peak. A general note: Size exclusion chromatography separates by hydrodynamic size, large species first.

Sequence of human FcγRIIA receptor, Arg131 allotype (on transfected Expi293F cells) (human) (P12318 other isoform, or with tags, fused parts or gaps): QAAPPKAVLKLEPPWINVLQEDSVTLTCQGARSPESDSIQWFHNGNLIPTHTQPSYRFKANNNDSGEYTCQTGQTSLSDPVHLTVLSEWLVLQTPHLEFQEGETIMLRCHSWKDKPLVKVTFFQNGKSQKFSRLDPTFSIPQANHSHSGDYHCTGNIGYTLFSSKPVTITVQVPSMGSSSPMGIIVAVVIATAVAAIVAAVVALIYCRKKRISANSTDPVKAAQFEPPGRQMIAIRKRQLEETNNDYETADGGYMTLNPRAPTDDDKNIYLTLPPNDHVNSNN

B1: OX40SF2IgG1S267E/L328F (antibody, V domains shown)
VH: QVQLVQSGAEVKKPGSSVKVSCKASGYTFKDYTMHWVRQAPGQGLEWIGGIYPNNGGSTYNQNFKDRVTLTADKSTSTAYMELSSLRSEDTAVYYCARMGYHGPHLDFDVWGQGTTVTVSS
VL: DIQMTQSPSSLSASVGDRVTITCKASQDVGAAVAWYQQKPGKAPKLLIYWASTRHTGVPSRFSGSGSGTDFTLTISSLQPEDFATYYCQQYINYPLTFGGGTKVEIK
Turning to B1, the agonism in the HEK-Blue NF-κB reporter assay, HEK-Blue:OX40 cells co-cultured with Raji cells, 10 to 1000 ng/ml antibody; decreased when Raji cells were pre-blocked with 5 μg/ml 2B6 in assay [1] is more than 2 fold. Also, in assay [2], the half-maximal effective concentration (EC50) – broadly, the concentration at which the effect is half-maximal – came to 1.5 nM and the fold more potent EC50 than OX40SF2IgG1 was 20 fold. Also, the EC50 in assay [3] worked out at 3.1 nM.

B2: OX40SF2IgG1E345R/E430G/S440Y (antibody, V domains shown)
VH: B1 VH
VL: B1 VL
On to B2, for which the stoichiometry N – broadly, a count of units in the complex or per binding partner – in assay [4] came to 6.
